Measured values reported in the Human Domainome abundance scans (Beltran et al. 2025).
± gives the uncertainty stated by the source.

B1: POU domain, class 4, transcription factor 1, residues 266 to 347; numbered along this chain, Q01851 (parent)
chain: RELEAFAERFKQRRIKLGVTQADVGSALANLKIPGVGSLSQSTICRFESLTLSHNNMIALKPILQAWLEEAEGAQREKMNKP

Variants of: B1
Test: abundance fitness (aPCA) (normalised: wild type 0, dead -1); higher = more abundant; growth selection in yeast, the domain comes from the species named
Conditions: Homo sapiens

| Variant | abundance fitness |
| --- | --- |
| RELEAFAERFKQRRIKLGVTQADVGSALANLKIPGVGSLSQSTICRFESLTLSHNNHIALKPILQAWLEEAEGAQREKMNKP | -0.399 ± 0.16 |
| RELEAFAERFKQRRIKLGVTQADVGSALANLKIPGVGSLSQSTICRFESLTLSHNNIIALKPILQAWLEEAEGAQREKMNKP | -0.16 ± 0.099 |
| RELEAFAERFKQRRIKLGVTQADVGSALANLKIPGVGSLSQSTICRFESLTLSHNNKIALKPILQAWLEEAEGAQREKMNKP | -0.901 ± 0.15 |
| RELEAFAERFKQRRIKLGVTQADVGSALANLKIPGVGSLSQSTICRFESLTLSHNNLIALKPILQAWLEEAEGAQREKMNKP | -0.031 ± 0.037 |
| RELEAFAERFKQRRIKLGVTQADVGSALANLKIPGVGSLSQSTICRFESLTLSHNNNIALKPILQAWLEEAEGAQREKMNKP | -0.19 ± 0.17 |
| RELEAFAERFKQRRIKLGVTQADVGSALANLKIPGVGSLSQSTICRFESLTLSHNNPIALKPILQAWLEEAEGAQREKMNKP | -0.606 ± 0.11 |
| RELEAFAERFKQRRIKLGVTQADVGSALANLKIPGVGSLSQSTICRFESLTLSHNNQIALKPILQAWLEEAEGAQREKMNKP | -0.197 ± 0.064 |
| RELEAFAERFKQRRIKLGVTQADVGSALANLKIPGVGSLSQSTICRFESLTLSHNNRIALKPILQAWLEEAEGAQREKMNKP | -0.775 ± 0.058 |
| RELEAFAERFKQRRIKLGVTQADVGSALANLKIPGVGSLSQSTICRFESLTLSHNNSIALKPILQAWLEEAEGAQREKMNKP | -0.309 ± 0.053 |
| RELEAFAERFKQRRIKLGVTQADVGSALANLKIPGVGSLSQSTICRFESLTLSHNNTIALKPILQAWLEEAEGAQREKMNKP | -0.374 ± 0.062 |
| RELEAFAERFKQRRIKLGVTQADVGSALANLKIPGVGSLSQSTICRFESLTLSHNNVIALKPILQAWLEEAEGAQREKMNKP | -0.273 ± 0.041 |
| RELEAFAERFKQRRIKLGVTQADVGSALANLKIPGVGSLSQSTICRFESLTLSHNNWIALKPILQAWLEEAEGAQREKMNKP | -0.289 ± 0.049 |
| RELEAFAERFKQRRIKLGVTQADVGSALANLKIPGVGSLSQSTICRFESLTLSHNNMAALKPILQAWLEEAEGAQREKMNKP | 0.041 ± 0.053 |
| RELEAFAERFKQRRIKLGVTQADVGSALANLKIPGVGSLSQSTICRFESLTLSHNNMCALKPILQAWLEEAEGAQREKMNKP | -0.094 ± 0.093 |
| RELEAFAERFKQRRIKLGVTQADVGSALANLKIPGVGSLSQSTICRFESLTLSHNNMDALKPILQAWLEEAEGAQREKMNKP | -0.167 ± 0.091 |
| RELEAFAERFKQRRIKLGVTQADVGSALANLKIPGVGSLSQSTICRFESLTLSHNNMEALKPILQAWLEEAEGAQREKMNKP | -0.023 ± 0.069 |
| RELEAFAERFKQRRIKLGVTQADVGSALANLKIPGVGSLSQSTICRFESLTLSHNNMFALKPILQAWLEEAEGAQREKMNKP | -0.075 ± 0.088 |

| Variant | abundance fitness |
| --- | --- |
| RELEAFAERFKQRRIKLGVTQADVGSALANLKIPGVGSLSQSTICRFESLTLSHNNMGALKPILQAWLEEAEGAQREKMNKP | -0.147 ± 0.045 |
| RELEAFAERFKQRRIKLGVTQADVGSALANLKIPGVGSLSQSTICRFESLTLSHNNMHALKPILQAWLEEAEGAQREKMNKP | -0.169 ± 0.17 |
| RELEAFAERFKQRRIKLGVTQADVGSALANLKIPGVGSLSQSTICRFESLTLSHNNMLALKPILQAWLEEAEGAQREKMNKP | -0.031 ± 0.052 |
| RELEAFAERFKQRRIKLGVTQADVGSALANLKIPGVGSLSQSTICRFESLTLSHNNMMALKPILQAWLEEAEGAQREKMNKP | -0.042 ± 0.074 |
| RELEAFAERFKQRRIKLGVTQADVGSALANLKIPGVGSLSQSTICRFESLTLSHNNMNALKPILQAWLEEAEGAQREKMNKP | 0.021 ± 0.1 |
| RELEAFAERFKQRRIKLGVTQADVGSALANLKIPGVGSLSQSTICRFESLTLSHNNMSALKPILQAWLEEAEGAQREKMNKP | -0.013 ± 0.064 |
| RELEAFAERFKQRRIKLGVTQADVGSALANLKIPGVGSLSQSTICRFESLTLSHNNMTALKPILQAWLEEAEGAQREKMNKP | 0.033 ± 0.081 |
| RELEAFAERFKQRRIKLGVTQADVGSALANLKIPGVGSLSQSTICRFESLTLSHNNMVALKPILQAWLEEAEGAQREKMNKP | -0.035 ± 0.048 |
| RELEAFAERFKQRRIKLGVTQADVGSALANLKIPGVGSLSQSTICRFESLTLSHNNMWALKPILQAWLEEAEGAQREKMNKP | -0.107 ± 0.057 |
| RELEAFAERFKQRRIKLGVTQADVGSALANLKIPGVGSLSQSTICRFESLTLSHNNMYALKPILQAWLEEAEGAQREKMNKP | -0.118 ± 0.23 |
| RELEAFAERFKQRRIKLGVTQADVGSALANLKIPGVGSLSQSTICRFESLTLSHNNMICLKPILQAWLEEAEGAQREKMNKP | -0.054 ± 0.063 |
| RELEAFAERFKQRRIKLGVTQADVGSALANLKIPGVGSLSQSTICRFESLTLSHNNMIDLKPILQAWLEEAEGAQREKMNKP | -0.052 ± 0.069 |
| RELEAFAERFKQRRIKLGVTQADVGSALANLKIPGVGSLSQSTICRFESLTLSHNNMIELKPILQAWLEEAEGAQREKMNKP | -0.026 ± 0.044 |
| RELEAFAERFKQRRIKLGVTQADVGSALANLKIPGVGSLSQSTICRFESLTLSHNNMIFLKPILQAWLEEAEGAQREKMNKP | 0 ± 0.095 |
| RELEAFAERFKQRRIKLGVTQADVGSALANLKIPGVGSLSQSTICRFESLTLSHNNMIGLKPILQAWLEEAEGAQREKMNKP | -0.103 ± 0.037 |
| RELEAFAERFKQRRIKLGVTQADVGSALANLKIPGVGSLSQSTICRFESLTLSHNNMIHLKPILQAWLEEAEGAQREKMNKP | 0.227 ± 0.19 |
